# Source: patent publication US20180079819A1 (IMMUNOGEN, published 2018)
# Changes are numbered by the printed parent chain. Read-outs that look alike come from different tables or passages of the source.
# B1: lysine-linked huCD123-6-IGN conjugate with D3 (antibody, human IgG1, kappa)
# heavy: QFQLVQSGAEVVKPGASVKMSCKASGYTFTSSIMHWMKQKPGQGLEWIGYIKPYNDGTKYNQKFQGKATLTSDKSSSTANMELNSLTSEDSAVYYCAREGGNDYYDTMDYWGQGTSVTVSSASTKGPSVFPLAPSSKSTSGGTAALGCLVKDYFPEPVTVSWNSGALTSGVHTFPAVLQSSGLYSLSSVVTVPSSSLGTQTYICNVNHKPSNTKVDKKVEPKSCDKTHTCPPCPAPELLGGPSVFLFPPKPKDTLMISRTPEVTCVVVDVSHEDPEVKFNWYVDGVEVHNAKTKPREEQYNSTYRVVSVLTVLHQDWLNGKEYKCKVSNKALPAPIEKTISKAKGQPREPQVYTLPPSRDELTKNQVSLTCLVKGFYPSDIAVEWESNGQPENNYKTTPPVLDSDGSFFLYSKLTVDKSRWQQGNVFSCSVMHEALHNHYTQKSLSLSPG
# light: DIQMTQSPSSMSASVGERVTITCRASQDINSYLSWFQQKPGKSPKTLIYRVNRLVDGVPSRFSGSGSGQDYSLTISSLEPEDMGIYYCLQYDAFPYTFGQGTKLEIKRTVAAPSVFIFPPSDEQLKSGTASVVCLLNNFYPREAKVQWKVDNALQSGNSQESVTEQDSKDSTYSLSSTLTLSKADYEKHKVYACEVTHQGLSSPVTKSFNRGEC
# modifications: D3 linked at Lys residues; sites not stated; D3 linked at Lys residues; sites and drug load not given
# B2: huCD123-6Gv4.7S3-SeriMab-sD1 (antibody, human IgG1, kappa)
# heavy: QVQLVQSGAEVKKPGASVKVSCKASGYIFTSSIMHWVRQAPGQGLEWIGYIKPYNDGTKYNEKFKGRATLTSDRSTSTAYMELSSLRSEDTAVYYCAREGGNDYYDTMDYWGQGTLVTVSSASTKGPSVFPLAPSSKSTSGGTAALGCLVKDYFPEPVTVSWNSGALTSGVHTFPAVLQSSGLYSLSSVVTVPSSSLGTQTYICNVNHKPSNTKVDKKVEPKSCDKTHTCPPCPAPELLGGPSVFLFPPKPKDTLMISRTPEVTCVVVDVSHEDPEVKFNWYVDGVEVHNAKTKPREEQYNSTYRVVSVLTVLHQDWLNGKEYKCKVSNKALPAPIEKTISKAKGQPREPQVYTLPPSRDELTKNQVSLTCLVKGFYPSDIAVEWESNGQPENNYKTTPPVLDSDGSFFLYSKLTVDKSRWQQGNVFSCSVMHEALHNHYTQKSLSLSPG
# light: SIQMTQSPSSLSASVGDRVTITCRASQDINSYLSWFQQKPGKAPKTLIYRVNRLVDGVPSRFSGSGSGNDYTLTISSLQPEDFATYYCLQYDAFPYTFGQGTKVEIKRTVAAPSVFIFPPSDEQLKSGTASVVCLLNNFYPREAKVQWKVDNALQSGNSQESVTEQDSKDSTYSLSSTLTLSKADYEKHKVYACEVTHQGLSSPVTKSFNRGEC
# modifications: sulfonated D1 (sD1) linked through the oxidized N-terminal Ser on the light chain; average of 2.0 D1 per antibody
# notes: also called huCD123-6-SeriMab-sD1
# B3: huCD123-6Rv1.1S2-SeriMab-D8 (antibody, human IgG1, kappa)
# heavy: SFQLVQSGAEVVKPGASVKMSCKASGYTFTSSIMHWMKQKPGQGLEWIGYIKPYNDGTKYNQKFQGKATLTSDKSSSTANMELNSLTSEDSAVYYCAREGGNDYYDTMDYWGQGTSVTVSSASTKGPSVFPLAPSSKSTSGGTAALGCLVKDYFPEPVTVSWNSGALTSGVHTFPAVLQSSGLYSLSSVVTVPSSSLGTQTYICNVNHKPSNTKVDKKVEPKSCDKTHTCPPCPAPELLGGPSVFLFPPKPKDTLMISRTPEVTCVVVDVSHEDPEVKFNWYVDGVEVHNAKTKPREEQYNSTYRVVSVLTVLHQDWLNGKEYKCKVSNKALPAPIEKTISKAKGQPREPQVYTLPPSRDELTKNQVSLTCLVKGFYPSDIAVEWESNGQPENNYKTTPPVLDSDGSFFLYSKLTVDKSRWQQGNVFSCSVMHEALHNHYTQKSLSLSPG
# light: B1 light
# modifications: D8 linked through the oxidized N-terminal Ser on the heavy chain
# B4: huCD123-6Gv4.6-CysMab-D5 (antibody)
# heavy: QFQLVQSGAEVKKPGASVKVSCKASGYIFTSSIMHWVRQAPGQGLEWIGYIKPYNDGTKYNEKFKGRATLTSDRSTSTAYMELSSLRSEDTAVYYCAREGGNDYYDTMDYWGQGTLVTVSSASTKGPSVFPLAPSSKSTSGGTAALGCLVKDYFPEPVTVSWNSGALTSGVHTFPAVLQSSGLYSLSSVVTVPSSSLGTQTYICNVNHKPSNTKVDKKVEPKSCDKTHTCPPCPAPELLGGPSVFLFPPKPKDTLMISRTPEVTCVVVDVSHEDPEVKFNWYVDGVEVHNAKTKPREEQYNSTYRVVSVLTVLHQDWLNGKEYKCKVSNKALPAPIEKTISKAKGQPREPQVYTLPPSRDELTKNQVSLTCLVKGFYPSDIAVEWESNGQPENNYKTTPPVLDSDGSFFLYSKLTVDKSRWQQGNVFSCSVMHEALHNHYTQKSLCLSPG
# light: B2 light with S1D
# modifications: D5 linked through the engineered Cys in the heavy chain CH3 domain (5th to the last residue of SEQ ID NO: 54)
# B5: huCD123-6Rv1.1-CX1-1-DM1 (antibody)
# heavy: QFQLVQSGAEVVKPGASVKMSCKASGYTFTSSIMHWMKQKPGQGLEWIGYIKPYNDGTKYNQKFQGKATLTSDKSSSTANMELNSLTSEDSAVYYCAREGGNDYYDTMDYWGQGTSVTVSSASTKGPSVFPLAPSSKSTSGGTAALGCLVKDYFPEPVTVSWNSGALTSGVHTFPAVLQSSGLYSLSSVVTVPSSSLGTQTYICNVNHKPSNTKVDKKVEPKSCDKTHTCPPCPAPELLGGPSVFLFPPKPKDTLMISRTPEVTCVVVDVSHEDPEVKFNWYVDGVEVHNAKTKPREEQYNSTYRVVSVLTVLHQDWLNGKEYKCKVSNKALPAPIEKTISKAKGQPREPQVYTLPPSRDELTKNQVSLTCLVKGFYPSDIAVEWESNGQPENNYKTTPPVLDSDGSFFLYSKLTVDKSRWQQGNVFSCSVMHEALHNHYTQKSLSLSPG
# light: B1 light
# modifications: DM1 linked at Lys residues via the triglycyl CX1-1 linker; sites not stated; DM1 linked at Lys residues via the triglycyl CX1-1 linker; average of 4.3 or 6.7 maytansinoid per antibody, sites not stated
# B6: huCD123-6Gv4.7-CysMab-D5 (antibody)
# heavy: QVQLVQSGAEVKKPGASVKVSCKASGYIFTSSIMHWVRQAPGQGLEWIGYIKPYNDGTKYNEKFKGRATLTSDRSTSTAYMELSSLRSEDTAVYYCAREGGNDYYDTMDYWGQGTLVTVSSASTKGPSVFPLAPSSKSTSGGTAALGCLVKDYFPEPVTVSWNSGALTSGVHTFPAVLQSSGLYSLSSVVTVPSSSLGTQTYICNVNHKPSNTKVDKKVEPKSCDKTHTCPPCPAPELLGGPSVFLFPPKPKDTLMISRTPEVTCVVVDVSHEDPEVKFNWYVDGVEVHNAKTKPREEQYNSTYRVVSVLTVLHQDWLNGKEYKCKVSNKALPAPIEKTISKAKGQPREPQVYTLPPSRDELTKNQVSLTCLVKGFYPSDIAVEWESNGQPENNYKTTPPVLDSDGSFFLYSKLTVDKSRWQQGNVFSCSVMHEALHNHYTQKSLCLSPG
# light: B2 light with S1D
# modifications: D5 linked through the engineered Cys in the heavy chain CH3 domain (5th to the last residue of SEQ ID NO: 54; EU/OU position 442); 2 mol D5/mol antibody
# notes: also called huCD123-CysMab-D5; Cys-linked D5 conjugate
# B7: muCD123-3 (antibody, mouse IgG1, kappa, V domains shown)
# VH: EFQLQQSGPEVVKPGASVKMSCKASGYTFTSYVMHWMKQKPGQGLEWIGYIKPYKDGTKYNEKFKGKATLISDKPSSTAYMELSSLTSEDSAVYYCAREGENGYYDAMDYWGQGTSVTVSS
# VL: DIQMTQSPSSLSASLGGKVTITCKASQDINKYIAWYQHKPGKGPRLLIHYTSTLQPGIPSRFSGSGSGRDYSFSISNLEPEDIATYYCLQYDNLLYTFGGGTKLELKR
# notes: Murine monoclonal antibody purified from hybridoma supernatant; also called CD123Mu-3; CD123 Mu-3
# B8: huCD123-6Gv4.7-CysMab (antibody)
# heavy chain: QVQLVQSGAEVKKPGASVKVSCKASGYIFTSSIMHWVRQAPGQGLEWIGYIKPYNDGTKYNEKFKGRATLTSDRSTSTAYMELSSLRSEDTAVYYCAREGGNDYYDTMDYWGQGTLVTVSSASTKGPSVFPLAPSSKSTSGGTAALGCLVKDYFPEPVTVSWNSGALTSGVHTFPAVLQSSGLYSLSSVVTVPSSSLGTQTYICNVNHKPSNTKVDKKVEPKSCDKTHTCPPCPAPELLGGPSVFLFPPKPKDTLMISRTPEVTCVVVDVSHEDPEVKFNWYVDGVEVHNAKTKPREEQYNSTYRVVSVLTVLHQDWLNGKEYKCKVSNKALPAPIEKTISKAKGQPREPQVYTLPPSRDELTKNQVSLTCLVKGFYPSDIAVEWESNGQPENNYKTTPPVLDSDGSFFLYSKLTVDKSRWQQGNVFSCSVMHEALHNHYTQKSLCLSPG
# light chain: DIQMTQSPSSLSASVGDRVTITCRASQDINSYLSWFQQKPGKAPKTLIYRVNRLVDGVPSRFSGSGSGNDYTLTISSLQPEDFATYYCLQYDAFPYTFGQGTKVEIKR
# notes: Differs from m21 (huCD123-6Gv4.7) by the engineered Cys in the heavy chain CH3 domain; it is the antibody part of m29 and m30
# Columns and labels:
# [1] = molecular target: T1, human CD123 (IL-3Rα, interleukin-3 receptor alpha chain) (human, UniProt P26951 19-378); assay: cell-based or functional assay
# T1 sequence (P26951 19-378): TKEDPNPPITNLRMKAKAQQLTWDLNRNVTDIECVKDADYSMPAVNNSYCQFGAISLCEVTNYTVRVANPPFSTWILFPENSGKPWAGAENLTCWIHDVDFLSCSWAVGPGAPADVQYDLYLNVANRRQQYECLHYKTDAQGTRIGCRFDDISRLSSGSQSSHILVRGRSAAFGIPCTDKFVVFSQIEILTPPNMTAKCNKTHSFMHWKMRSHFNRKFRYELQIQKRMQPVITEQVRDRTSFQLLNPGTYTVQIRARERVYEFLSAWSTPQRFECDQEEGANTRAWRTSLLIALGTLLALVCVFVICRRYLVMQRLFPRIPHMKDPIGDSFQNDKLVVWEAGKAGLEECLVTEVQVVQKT
# [2] = molecular target: T1, human CD123 (IL-3Rα, interleukin-3 …); assay: flow cytometry on HNT-34 cells, PE-conjugated goat anti-human secondary
# [3] = molecular target: T1, human CD123 (IL-3Rα, interleukin-3 …); assay: cell-based or functional assay; remark: listed apart in the source
# [4] = molecular target: T1, human CD123 (IL-3Rα, interleukin-3 …); assay: cell-based or functional assay; remark: listed apart in the source
# [5] = molecular target: T1, human CD123 (IL-3Rα, interleukin-3 …); assay: flow cytometry on HNT-34 cells, PE-conjugated goat anti-human secondary; remark: listed apart in the source
# [6] = molecular target: T1, human CD123 (IL-3Rα, interleukin-3 …); assay: flow cytometry on HNT-34 cells; EC50 of the binding curve taken as apparent Kd
# [7] = molecular target: T1, human CD123 (IL-3Rα, interleukin-3 …); assay: flow cytometry on TF-1 cells; EC50 of the binding curve taken as apparent Kd; TF-1 cells
# Procedure: Binding affinity was tested by flow cytometry using purified antibodies. […] TF-1 cells (5×10⁴ cells per sample) were incubated with varying concentrations of murine antibodies in 200 μL FACS buffer (DMEM medium supplemented with 2% normal goat serum). The cells were then pelleted, washed twice, and incubated for 1 hr with 100 μL of phycoerythrin (PE)-conjugated goat anti-mouse IgG-antibody (Jackson Laboratory). The cells were pelleted again, washed with FACS buffer and resuspended in 200 μL of PBS containing 1% formaldehyde. Samples were acquired using a FACSCalibur flow cytometer with the HTS multiwell sampler, or a FACS array flow cytometer, and analyzed using CellQuest Pro (all from BD Biosciences, San Diego, US). For each sample the geomean fluorescence intensity for FL2 was calculated and plotted against the antibody concentration in a semi-log plot. A dose-response curve was generated by non-linear regression and the EC₅₀ value of each curve, which corresponds to the apparent dissociation constant (Kd) of each antibody, was calculated using GraphPad Prism v4 (GraphPad software, San Diego, Calif.).
binder,measurement,setting,value
B1,"IC50, in vitro cytotoxicity on EOL-1 cells (AML)",[1],0.0033 nM
same,"IC50, in vitro cytotoxicity on Granta519 cells (NHL)",[1],0.0021 nM
same,"IC50, in vitro cytotoxicity on HNT-34 cells (AML)",[1],0.0032 nM
same,"IC50, in vitro cytotoxicity on JM-1 cells (B-ALL)",[1],0.17 nM
same,"IC50, in vitro cytotoxicity on KASUMI-3 cells (AML)",[1],0.023 nM
same,"IC50, in vitro cytotoxicity on KCL-22 cells (CML)",[1],0.95 nM
same,"IC50, in vitro cytotoxicity on KG-1 cells (AML)",[1],6.6 nM
same,"IC50, in vitro cytotoxicity on KO52 cells (AML)",[1],0.24 nM
same,"IC50, in vitro cytotoxicity on KOPN8 cells (B-ALL)",[1],0.022 nM
same,"IC50, in vitro cytotoxicity on MOLM-1 cells (CML)",[1],0.071 nM
same,"IC50, in vitro cytotoxicity on MOLM-13 cells (AML)",[1],0.00046 nM
same,"IC50, in vitro cytotoxicity on MV4-11 cells (AML)",[1],0.00054 nM
same,"IC50, in vitro cytotoxicity on OCI-AML2 cells (AML)",[1],0.1 nM
same,"IC50, in vitro cytotoxicity on SHI-1 cells (AML)",[1],0.029 nM
same,"IC50, in vitro cytotoxicity on THP1 cells (AML)",[1],0.03 nM
B2,EC50 (read off the curve),[2],~0.2 nM
B3,"IC50, in vitro cytotoxicity on HNT-34 cells",[3],~0.002 nM
same,"IC50, in vitro cytotoxicity on MOLM-1 cells",[3],~0.03 nM
same,"IC50, in vitro cytotoxicity on SHI-1 cells",[3],~0.01 nM
same,fold loss of cytotoxicity when CD123 is blocked by the unconjugated huCD123-6 antibody,[3],≥ 100 fold
B4,"IC50, in vitro cytotoxicity on EOL-1 cells",[3],~0.002 nM
same,"IC50, in vitro cytotoxicity on KOPN-8 cells",[3],~0.005 nM
same,"IC50, in vitro cytotoxicity on MOLM-1 cells",[3],~0.02 nM
same,fold loss of cytotoxicity when CD123 is blocked by the unconjugated chCD123-6 antibody,[3],≥ 100 fold
B5,"IC50, in vitro cytotoxicity on OCI-AML4 cells",[3],0.07 nM
B6,"Fold-specificity IC50 control ADC/IC50 huCD123-CysMab-D5, EOL-1 cells",[4],1000 fold
same,"Fold-specificity IC50 control ADC/IC50 huCD123-CysMab-D5, HNT-34 cells",[4],1100 fold
same,"Fold-specificity IC50 control ADC/IC50 huCD123-CysMab-D5, KASUMI-3 cells",[4],100 fold
same,"Fold-specificity IC50 control ADC/IC50 huCD123-CysMab-D5, KG-1 cells",[4],95 fold
same,"Fold-specificity IC50 control ADC/IC50 huCD123-CysMab-D5, KO52 cells",[4],100 fold
same,"Fold-specificity IC50 control ADC/IC50 huCD123-CysMab-D5, MOLM-1 cells",[4],> 167 fold
same,"Fold-specificity IC50 control ADC/IC50 huCD123-CysMab-D5, MV4-11 cells",[4],2000 fold
same,"Fold-specificity IC50 control ADC/IC50 huCD123-CysMab-D5, Molm-13 cells",[4],2000 fold
same,"Fold-specificity IC50 control ADC/IC50 huCD123-CysMab-D5, SHI-1 cells",[4],> 3.33 fold
same,"Fold-specificity IC50 control ADC/IC50 huCD123-CysMab-D5, SKM-1 cells",[4],57 fold
same,"Fold-specificity IC50 control ADC/IC50 huCD123-CysMab-D5, THP-1 cells",[4],167 fold
same,"Fold-specificity IC50 control ADC/IC50 huCD123-CysMab-D5, UCSD-AML1 cells",[4],400 fold
same,"IC50, in vitro cytotoxicity on EOL-1 cells",[4],2 pmol
same,"IC50, in vitro cytotoxicity on HNT-34 cells",[4],1 pmol
same,"IC50, in vitro cytotoxicity on KASUMI-3 cells",[4],3 pmol
same,"IC50, in vitro cytotoxicity on KG-1 cells",[4],60 pmol
same,"IC50, in vitro cytotoxicity on KO52 cells",[4],20 pmol
same,"IC50, in vitro cytotoxicity on MOLM-1 cells",[4],120 pmol
same,"IC50, in vitro cytotoxicity on MV4-11 cells",[4],1 pmol
same,"IC50, in vitro cytotoxicity on Molm-13 cells",[4],0.5 pmol
same,"IC50, in vitro cytotoxicity on SHI-1 cells",[4],6 pmol
same,"IC50, in vitro cytotoxicity on SKM-1 cells",[4],7 pmol
same,"IC50, in vitro cytotoxicity on THP-1 cells",[4],30 pmol
same,"IC50, in vitro cytotoxicity on UCSD-AML1 cells",[4],1 pmol
same,EC50 (read off the curve),[5],~0.08 nM
B7,"IC50, inhibition of IL-3 dependent proliferation of TF-1 cells",[3],0.26 nM
same,Kd,[6],0.2 nM
same,Kd,[7],0.3 nM
B8,EC50 (read off the curve),[5],~0.04 nM
